From the supplement of paper PMC9170038

tested on: K4 kissing-loop RNA reporter; test: apparent KD of K4 kissing-loop reporter; higher = weaker reporter binding; conditions: Eterna round: R107; input ligand: FMN 200 uM
Protocol: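 RNA-MaP round R107: designed RNA switches with theophylline, tryptophan, arginine or FMN aptamers are transcribed on-chip within common flanks. They are titrated with a labelled K4 kissing-loop RNA reporter in RNA-MaP buffer (100 mM Tris pH 7.5, 80 mM KCl, 4 mM MgCl2), without ligand or with the indicated ligand. Median apparent KD per design.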
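Further: bound reporter read as fluorescence of individual clusters on recovered sequencing chips by microscopy, with normalized cluster intensities fitted with a binding model.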

| Sequence | apparent KD of K4 kissing-loop reporter |
| --- | --- |
| AAUAAGCAUGGAAGGAGCGUAGUCCAGUGAUGUUGGAGUUAAAUACCAGUGAUGUUGGUUAUACAGGUAGGUCGCCAUAAAGCUU [Exclusion Arginine B Gf 6] | 92.4 nM |
| GAUGGUCGAGAAGGAUAUGUGACUACCAGAAGGAAAUUCAGUGAUGUUGAUUGUCGCGAGCAGGAGACAGAAGGUCUCAGACAUA [theeternabot_exclusion_KL_FMN_B_5] | 506 nM |
| AGUAGUUGGGCGGCCGCCACUGGAACAGCUUUGCCAAAGGCAGAGCACUAGAGUGAUGUUCUAGCUAGGACCGGGUCCAACUACA [whbob_SS_Tryp_B_t17] | 588 nM |
| CGCGCGGGUUUGAGAGGGUUCGCGCGAAGUGAGGAUAUUUAGGGAGAAAGAAGGCACUAUAAAAUAUAGUGAUGUUAUAUAAGGG [SSFMNA.H] | 699 nM |
| GGAUUCGGCGCGGCCGCCACUUCCGGUGGCUGGUGUCAUGGUGCGCGUGAGUGAUGUUUAUGUGGGAGGACCGGGCGUUGAGUCC [whbob_Ex_Tryp_B_w45] | 577 nM |
| GGUAGCAUGGCGGCCGCCACUUUUUUAGAUACCUACACAGAAAGCAGUGAUGUUGCUUGGUGGUAAAGGACCGGGCCAUGCUACC | 149 nM |
| AGAAUAAUAAAUUUGGAGUGAUGUUCCGGACGAGGACCGGUACGGCCGCCACUCGAAAGCAGUCUGCGAAAGCAGACUGCAAGGA [Tesla SS Tryp A 1] | 817 nM |
| GGAUAGGACGGAGGAUAUGGUAGUGAUGUUACCAAACUGGUUAAACAUGUCAGAAAACUGGCAUGACCAGAAGGUUGUCCUAUCG [FmnBX 27 G10+U75] | 98.2 nM |
| UAUAUAUGAUGUGAUACCAGUGAAAAGCCAGUGAUGUUGGUAGAACUGGUAUAUAAAUAACACCCUUGGCAGCACAAUCACGUAU [whbob_Ex_Theo_B_sa96] | 155 nM |
| CUGUACAUCUCGGCCGCCACUGACAUGAGUGAUGUUCAUGUACAUGAGUGAUGUUCAUGUUCGGCCAGGACCGGGAGGUGUGCAG [KL-SSTryp-B2 #analogue #double KL] | 352 nM |
| UAAUUUAUGUCUUUAAUUUUAUAAUCAGAUACCAGUGAUUUAUGACACCCUUGGCAGCUGUAUUGAGUGAUGUUCUUAUACUUAA [JR_Nu_ExcTheophyA_Sub022] | 140 nM |
| UUCUCUCAGGCACGCGAGUGAUGUUCGCGGCGAGGACCGGUACGGCCGCCACUCGCGCCUGAGAGAGGUUAUCAAAGAUAGCCUU [whbob_SS_tryp_A] | 163 nM |
| GGUGGCUUACAAAGCUCAGUGAUGUUGAGCCGAGGACCGGUACGGCCGCCACUCGUUUGCCAUUCACUACAGUUACAAGCACUAG [theeternabot_exclusion_KL_Trp_A_2] | 269 nM |
| UUUUAUUAAUUCUUCUAGUGAUGUUAGAUACGAGGACCGGUACGGCCGCCACUCGCUUAUUGGUUUAUAAAUUUUAUAUUAUUUA [JR_SSTryptoA_Sub016] | 292 nM |
| CCCUCACGAGUGAUGUUCGUAGGGUACAGUCAGGAUAUCAUGCGGUUGAGAAGGGACAGGAAGGGCGGCGGCGGGUUGCUCACCG [Atera] | 154 nM |
| CGGUACGUCGCAGGAUAUGGAUUCUGGAGUGAUGUUUCAGAGGCAUGCGGAAAACGCAUGCCGACUCCAGAAGGGCGACGUACCG | 752 nM |
| GGAUAGGAUAGAGGAUAUGGAAAACACAGAAAUGACUUGUUGUGUUUAUCCAUAGGGAGUGAUGUUCCAGAAGGCUGUCCUAUCG [MatMod 21 - Jieux - Exclusion - FMN B] | 289 nM |
| GUCAUGCGUUCAGGAUAUGGACCAAUUUAUAUUGCUUAUGCUGUGCCCUGUAUGGCAGUGAUGUUGCCAGAAGGGAGGGCAUGCA [Erbionvean] | 116 nM |
| AGGAUCACGUCAGUGAUGUUGACAAGAGAUACCAGAGACGAAAGUCUCCCUUGGCAGCUCAUUGUGAUCCGUGACAAAGGUCACA [Omei KL hio A SS C v2] | 353 nM |
| GCGCGGGUCAGUGAUGUUGACCCUCGGAGACGAGGACCGGUACGGCCGCCACUCGUCCGCGCAGCUGAGGCAAAAGCCUCGGCAA [Omei KL Tryp A SS B v5] | 155 nM |
| AUUAAUAACUGAGGAUAUCGUUUUACUGUAGUGAUGUUACAGAAAAUGCACAUUAUAAUUUCUAUUCGAGAAGGCAGAAUAAUUA [JR_ExcFMNB_Sub013] | 110 nM |
| ACUAUCAUUACGCAUGGAGUGAUGUUUCAGCGAGGACCGGUACGGCCGCCACUCGUUACGUGGUUAGAGCCAAUGUUCGAGAAGC [theeternabot_exclusion_KL_Trp_A_39] | 1170 nM |

| Sequence | apparent KD of K4 kissing-loop reporter |
| --- | --- |
| ACACAGAGUUGCCGAGUGAUGUUCGGCUUACGAGGACCGGUACGGCCGCCACUCGUUACUCUGUGUUUUGGACACCAAGGCGUAG [Edvemaquan] | 565 nM |
| UCCUGCUGUCAGCCACGAAAGUGGAUUGAUACCAGAGUCGAAAGACUCCCUUGGCAGCGAGUGAUGUUCGCAGCAGGUAAAUAAA [MatMod 3 - Jieux - Exclusion - Theophylline A] | 358 nM |
| UUAUAACCCAGUGAUGUUGGGUAGCGGCCACGAGGACCGGUACGGCCGCCACUCGAGGUUUGACCAGUGAUGUUGGACUAUUUGG [Same state Tryptophan A GF 5] | 163 nM |
| AGUGACGAGUGAUGUUCGUGAACACUGGAUACCAGCAGUCUUAUCUGCCCUUGGCAGCCAACGGGAACCGAAUGUUAAGACCUGU [theeternabot_exclusion_KL_Theo_A_4] | 132 nM |
| CCCGUGGGUUUGAGAGGGCUUGUGGGAAGUAAGGAUAUUUAGGGAGAAAGAAGGUACUAUAGAAUAUAGUGAUGUUAUAUAUGGG [#06 K4 FMN A Same State] | 238 nM |
| CAUACGCAUGGAGGAUAUGAGAUUUCUCAUAUUAUUUAUUAUUCUCAGUGAUGUUGGGAUUUAAACUCAGAAGGCCAUGUGUAUG [Ex FMN B 8] | 252 nM |
| AUAUUUAUUUAGUCACUUUUCAUAUUAUGUCAGGAUAUCGUAUUUUCGAGAAGGGACUCAUGGUAGUGAUGUUACCUAUUUCUCA [#03 K4 FMN A Exclusion] | 196 nM |
| GCUACUGCUGAAGGAUAUAUCAAUAGAGUGAUGUUCUAUGUCGGUAGCCCGAAAGGGCUACCGACGAUAGAAGGUCAGCAGUAGC | 113 nM |
| GCGCGCGGCGGAGGAUAUAGCCGGUGAUCCGAGAAAGUGAGUGAUGUUUACGGAGUUGAGGAUAUGUUAGAAGGCCGCCGCGCGC [abcdefghijklmnopqrstuvwx] | 339 nM |
| UGGGUGUAGUGAUGUUAUAUAGAGAGUGAUACCAGCUUAGAGAGAAGCCCUUGGCAGCAUAGAAGAGUAUCAUUGGAGGAGGAGG [ExTheophyl.Ay] | 680 nM |
| AGGAUCCACCAGUGAUGUUGGAAAUACUCCAAGGAUAUGACGAAAGUCAGAAGGUGGUAGACUGGACAAAGUCCAGUCGGAUCCA [FmnA 28 #SwitchBubble #K4Early] | 534 nM |
| UUAUUAAUCGCAGAUACCAGUCCAGAAUGAAUACUAUAGUGAUGUUAUAAUAAAGGGAAGGACCCUUGGCAGCUGUAAUAUAUUU [AstrosSsTheB#3] | 371 nM |
| UGAUACCAGACGGCCGCCACUCCUGCAGUCAAAGACUGCAAAGGAAUAUUCGUCCAGUGAUGUUGGAGGACCGGGUCUGGUAUCU [TrypBX 11 #SwitchBubble #Palindromic #StaticStem] | 974 nM |
| GGUUAAAGCACCCGGAGUGAUGUUCCGGAUACCAGCAAACCAACUUGCCCUUGGCAGCCGUAUAGCGUCCGGUGGGCCGAGCAUA [Raarce] | 94.9 nM |
| UGGGAUGGGCGAGGAUAUGGUGAGGUGGCGGUUGUUAGUGAUGUUGGUGAUGCUAGUGAUGUUUGUCCAGAAGGCGCGGGAUUUU [BDazzled] | 218 nM |
| UGAUACCAGACGGCCGCCACUCCCGUAAGUCAAAGACUUACGAAGAGAGUCGUCCAGUGAUGUUGGAGGACCGGGUCUGGUAUCU [FiskerMod 12 - Jieux - Exclusion - Tryptophan B] | 179 nM |
| GAAUUGACGAGUGAUGUUCGUCCACAAUACCGAGGACCGGUACGGCCGCCACUCGAGCAAUGUGAAUAGGGUCGCGUUUUGCAGU | 294 nM |
| ACUAUGGAGUGAUGUUCCCGCGUCAUUGAUACCAGAAUGUAUACCUUCCCUUGGCAGCAAUUCAUCGCACGUAUACUUAUACAAG [theeternabot_sameState_KL_Theo_A_31] | 585 nM |
| UACAGGGCGAGUGAUGUUUGCUCAUGUGAUACCAGUGCCAUCCAACACCCUUGGCAGCAUGCGGGCAGUGAUGUUGUCCUUGGUU [Exclusion Theophylline A GF11] | 294 nM |
| AGGCACGAGCAAGGAUAUCGAGUAGAGUGAUGUUCUGCCUGGGUUGGCUCGUAAGGGCCUUCCCAGCGAGAAGGUGCUCGUGCCU [#2 Same State - FMN A Attempt #15 (HarryS)] | 221 nM |
| AGAGUCAGACAAAAGUCUGGCUCAGCCGAAGGAGCGUCCGUAAGGACAGGUAGGUCGCGGCUAUUUGAGUGAUGUUUGGGUUCCU [KL-SSArg-A20] | 281 nM |

same assay, conditions: Eterna round: R107; input ligand: arginine 13.2 mM

| Sequence | apparent KD of K4 kissing-loop reporter |
| --- | --- |
| AAUAAGCAUGGAAGGAGCGUAGUCCAGUGAUGUUGGAGUUAAAUACCAGUGAUGUUGGUUAUACAGGUAGGUCGCCAUAAAGCUU [Exclusion Arginine B Gf 6] | 64.8 nM |
| GAUGGUCGAGAAGGAUAUGUGACUACCAGAAGGAAAUUCAGUGAUGUUGAUUGUCGCGAGCAGGAGACAGAAGGUCUCAGACAUA [theeternabot_exclusion_KL_FMN_B_5] | 265 nM |
| AGUAGUUGGGCGGCCGCCACUGGAACAGCUUUGCCAAAGGCAGAGCACUAGAGUGAUGUUCUAGCUAGGACCGGGUCCAACUACA [whbob_SS_Tryp_B_t17] | 250 nM |
| CGCGCGGGUUUGAGAGGGUUCGCGCGAAGUGAGGAUAUUUAGGGAGAAAGAAGGCACUAUAAAAUAUAGUGAUGUUAUAUAAGGG [SSFMNA.H] | 93.9 nM |
| GGAUUCGGCGCGGCCGCCACUUCCGGUGGCUGGUGUCAUGGUGCGCGUGAGUGAUGUUUAUGUGGGAGGACCGGGCGUUGAGUCC [whbob_Ex_Tryp_B_w45] | 322 nM |
| GGUAGCAUGGCGGCCGCCACUUUUUUAGAUACCUACACAGAAAGCAGUGAUGUUGCUUGGUGGUAAAGGACCGGGCCAUGCUACC | 131 nM |
| AGAAUAAUAAAUUUGGAGUGAUGUUCCGGACGAGGACCGGUACGGCCGCCACUCGAAAGCAGUCUGCGAAAGCAGACUGCAAGGA [Tesla SS Tryp A 1] | 449 nM |
| GGAUAGGACGGAGGAUAUGGUAGUGAUGUUACCAAACUGGUUAAACAUGUCAGAAAACUGGCAUGACCAGAAGGUUGUCCUAUCG [FmnBX 27 G10+U75] | 69 nM |
| UAUAUAUGAUGUGAUACCAGUGAAAAGCCAGUGAUGUUGGUAGAACUGGUAUAUAAAUAACACCCUUGGCAGCACAAUCACGUAU [whbob_Ex_Theo_B_sa96] | 134 nM |
| CUGUACAUCUCGGCCGCCACUGACAUGAGUGAUGUUCAUGUACAUGAGUGAUGUUCAUGUUCGGCCAGGACCGGGAGGUGUGCAG [KL-SSTryp-B2 #analogue #double KL] | 184 nM |
